From patent US5840283A, “Composition and method for treating diseased nails” (Sorenson Pharmaceutical, Inc., priority 1997, dated 1998)
Structures can show the parent of a compound that is named as a salt. Where two headings read alike, the source gives them in different places.

Columns and labels:
[1] = pilot clinical study in patients with subungual onychomycosis; format: in vivo, human; conditions: arm 3; patient's assessment of clinical results 1-5, 5 positive
Excerpt: Patients enrolled in the study were diagnosed with subungual onychomycosis from a positive culture of a target nail. The target nail was that nail most severely involved with symptoms of onychomycosis. […] Patients with a history of non-response to standard antimycotic treatments, or severe abnormalities or deformities of the assessed fingers or toes, were excluded.
The protocol called for an eleven month treatment period.
Patients visited their physicians on a monthly basis for evaluation. Clinical measurements and mycological cultures were taken on alternating visits. Adverse events were defined as any abnormal inflammation of the tissues surrounding the nail from the patient's pretreatment condition and were checked by their physician or reported as they occurred. Patient evaluations of clinical treatment were obtained by a survey of patients. Ease of application, convenience of application, and patient's assessments of the clinical results were rated by patients on a scale of 1 to 5 with 1 indicating visible effect and 5 being positive. In addition, patients were also asked to respond to treatment compliance by reporting the number of days per week which they applied their medication as prescribed.
Therefore, patients treated in arm 3 (antifungal only) of the study were used as the baseline upon which clinical and mycologic results were measured.

[2] = format: in vitro ADME, human
Method: The efficacy of the nail-permeable medication means of the present invention was first evaluated by conducting comparative studies comprising application of a selected drug applied to a human nail in vitro as compared to the application of the nail-permeable medication means containing the same drug applied to a human nail in vitro. Specifically, these tests were conducted using diseased human toenails which were surgically removed from patients as a means of curing the disease condition of the nail.
Each nail was maintained in an environment simulating an in vivo condition. Each nail was maintained suspended on a plastic holder which allowed air to circulate about the nail. Each nail holder was retained in a separate enclosed system the temperature and humidity within which could be carefully regulated to simulate the human body. These artificial in vivo environments provided the diffusion cells in which the studies were conducted.
Human nails were prepared by cleaning and, in some instances, grinding the nail down to establish a more even thickness across the nail. The nails were then hydrated using distilled water to render the nails pliable for placement in the diffusion cell. […] A Teflon® donor compartment 16 was positioned over the nail 12 and the nail saddle 14 was joined to the donor compartment 16 by placement of a silicone sealant about the edges of the nail 12 and donor compartment 16. After the silicone cured, water leakage was tested and the nails were resealed if necessary. […] Attempts were made to use an appropriate size "O" ring 18 to form the seal between the nail saddle 14 and the donor compartment 16.
The cell 10 was used by adding solvent, usually de-ionized water, until the solvent came into contact with the nail. […] When semi-solid treatment formulations were used, excess product was removed from the nail by cleansing with cotton swabs after twenty-four hours and prior to application of another nail treatment or pre-treatment product. Pretreatment products (e.g., hydrating fluid, etc.) and treatment products (i.e., nail-permeable medication means) were changed or supplemented daily throughout the experimental period.
After addition of the pretreatment or treatment product, the opening of the donor cell 10 was occluded with silicone cement/sealant. The possibility of entrapped air at the interface of the receiver solvent and nail was checked daily, as well as at the beginning of the experiment. To control this problem, care was taken to be certain that no bubbles were present at the time solvents were added and the nail placed in the saddle. Bubbles may not be visible after the apparatus is fully assembled. Also, dissolved gases tend to separate into bubbles and rise to the nail/receiver interface during the process.
Ciclopirox olamine (6-Cyclohexyl 1-hydroxy 4-methyl 2(1H)-pyridone, 2-aminoethanol salt [Bertrafen]), an antimycotic drug, was used in the nail-permeable medication means of the invention for the purposes of testing and analysis. Three analytical methods are identified in the literature which appear to be acceptable means of determining drug diffusion rates. One method requires the use of radio-labeled drug, and another method utilizes LC (liquid chromatography) equipment. The third method, described by Belliardo, et al., in "Micro-liquid chromatography method for the determination of ciclopirox olamine after pre-column derivatization in topical formulations" Jr. Chromatography, Vol. 553 (1991), p. 41-5, was the method used here. However, because of lack of access to a micro-LC system, lesser concentrations of ciclopirox olamine (<1-2 μg/ml of diffusion fluid) were unquantifiable. Lesser concentrations were sometimes seen as small irregularities on the HPLC (high-pressure liquid chromatography) tracing, but the identity was not confirmed by computer. […]

[3] = test system: T. rubrum; conditions: cited from earlier work
[4] = duration of papain activity after mixture with water; format: physicochemical; conditions: certain activators present
Excerpt: The nail-permeable medication means also includes a medicament which is especially selected for treatment of a particular disease condition. The concentration of medicament in the nail-permeable means is sufficient to effectively control or eliminate the disease condition. […] It is notable in that respect that many medications have a water base, or have a water component in addition to certain activators (e.g. thiols and mercaptans which include cysteine and a chelating agent, such as EDTA [ethylenediaminetetraacetic acid]) which, when admixed with the enzymatic composition, may begin to degrade the enzyme and/or reduce its effectiveness. However, admixture of a water-based or water-containing medicament with a proteolytic enzyme will typically degrade the enzymatic component slowly enough that significant penetration of the nail still takes place and the medicament is successfully delivered to the disease site. Generally, papain and other proteolytic enzymes are effective for approximately twenty-four hours after mixture with water where certain activators are present. In the absence of such activators, papain may remain active for up to two years.

[5] = cited from earlier work
[6] = test system: casein substrate; conditions: cited from earlier work

In the case of `Cc1cc(C2CCCCC2)n(O)c(=O)c1` [ciclopirox olamine, 6-Cyclohexyl 1-hydroxy 4-methyl 2(1H)-pyridone, 2-aminoethanol salt], the “Results (1-5)” value [1] is reported as 1, the “amount of drug diffused compared with soaked nails” value [2] is reported as “less than when the nails were soaked with the papain-plus-activators” and the “diffusion of drug through the nail, control without proteolytic enzyme component” value [2] is reported as “no diffusion of drug through the nail”. The “drug diffusion for the seven-day period” value [2] was 2 to 6 µg/mL, the “effect of increasing papain concentration on amount of drug diffused” value [2] was “did not increase the amount of drug diffused” and the “effect of soaking time on amount of drug diffused” value [2] was “the amount of drug that diffused through the treated nails also increased”. For the same molecule, the “ANALYSES (ciclopirox diffused through nail)” value ([2]; pH 10) was 0 µg/mL and the “minimum inhibitory concentration (MIC)” value [3] was 10 µg/mL.

B1: papain: proteolytic enzyme (protein, UniProt P00784 134-345, looked up)
Papain: IPEYVDWRQKGAVTPVKNQGSCGSCWAFSAVVTIEGIIKIRTGNLNEYSEQELLDCDRRSYGCNGGYPWSALQLVAQYGIHYRNTYPYEGVQRYCRSREKGPYAAKTDGVRQVQPYNEGALLYSIANQPVSVVLEAAGKDFQLYRGGIFVGPCGNKVDHAVAAVGYGPNYILIKNSWGTGWGENGYIRIKRGTGNSYGVCGLYTSSFYPVKN
In the case of B1, the “diffusion results by papain concentration” value [2] is reported as “optimal diffusion results” and the “duration of effectiveness after mixture with water” value [4] is reported as “approximately twenty-four”.

B2: Sigma papain: papain product of Sigma, approximately eighty percent protein (protein, UniProt P00784 134-345, looked up)
Papain: IPEYVDWRQKGAVTPVKNQGSCGSCWAFSAVVTIEGIIKIRTGNLNEYSEQELLDCDRRSYGCNGGYPWSALQLVAQYGIHYRNTYPYEGVQRYCRSREKGPYAAKTDGVRQVQPYNEGALLYSIANQPVSVVLEAAGKDFQLYRGGIFVGPCGNKVDHAVAAVGYGPNYILIKNSWGTGWGENGYIRIKRGTGNSYGVCGLYTSSFYPVKN
modifications: commercial preparation
notes: papain product of Sigma, approximately eighty percent protein
In the case of B2, the papain activity ([5]; 25° C., pH 6.2, Sigma papain product) is given as 10-20 BAEE Units per milligram of enzyme-containing material.

B3: ICN papain 2× crystallized suspension: ICN Company papain, 2× crystallized suspension form (protein, UniProt P00784 134-345, looked up)
Papain: IPEYVDWRQKGAVTPVKNQGSCGSCWAFSAVVTIEGIIKIRTGNLNEYSEQELLDCDRRSYGCNGGYPWSALQLVAQYGIHYRNTYPYEGVQRYCRSREKGPYAAKTDGVRQVQPYNEGALLYSIANQPVSVVLEAAGKDFQLYRGGIFVGPCGNKVDHAVAAVGYGPNYILIKNSWGTGWGENGYIRIKRGTGNSYGVCGLYTSSFYPVKN
modifications: crystallized suspension
notes: ICN Company papain, 2× crystallized suspension form
For B3, the papain activity ([5]; ICN papain forms) is listed as 15-40 BAEE Units of activity.

B4: Sigma papain, product no. P4762: Sigma Co., product no. P4762, 2× crystallized, lyophilized powder (protein, UniProt P00784 134-345, looked up)
Papain: IPEYVDWRQKGAVTPVKNQGSCGSCWAFSAVVTIEGIIKIRTGNLNEYSEQELLDCDRRSYGCNGGYPWSALQLVAQYGIHYRNTYPYEGVQRYCRSREKGPYAAKTDGVRQVQPYNEGALLYSIANQPVSVVLEAAGKDFQLYRGGIFVGPCGNKVDHAVAAVGYGPNYILIKNSWGTGWGENGYIRIKRGTGNSYGVCGLYTSSFYPVKN
modifications: lyophilized powder
notes: Sigma Co., product no; P4762, 2× crystallized, lyophilized powder
For B4, the papain activity ([5]; Sigma product no. P4762, 2× crystallized, lyophilized powder) is given as 16-20 BAEE units/mg.

B5: ICN papain 2× crystallized powder: ICN Company papain, 2× crystallized powder (protein, UniProt P00784 134-345, looked up)
Papain: IPEYVDWRQKGAVTPVKNQGSCGSCWAFSAVVTIEGIIKIRTGNLNEYSEQELLDCDRRSYGCNGGYPWSALQLVAQYGIHYRNTYPYEGVQRYCRSREKGPYAAKTDGVRQVQPYNEGALLYSIANQPVSVVLEAAGKDFQLYRGGIFVGPCGNKVDHAVAAVGYGPNYILIKNSWGTGWGENGYIRIKRGTGNSYGVCGLYTSSFYPVKN
modifications: crystallized powder
notes: ICN Company papain, 2× crystallized powder
For B5, the papain activity ([5]; ICN papain forms) is listed as 10-20 BAEE Units of activity.

B6: USP papain: papain of United States Pharmacopeia standard (protein, UniProt P00784 134-345, looked up)
Papain: IPEYVDWRQKGAVTPVKNQGSCGSCWAFSAVVTIEGIIKIRTGNLNEYSEQELLDCDRRSYGCNGGYPWSALQLVAQYGIHYRNTYPYEGVQRYCRSREKGPYAAKTDGVRQVQPYNEGALLYSIANQPVSVVLEAAGKDFQLYRGGIFVGPCGNKVDHAVAAVGYGPNYILIKNSWGTGWGENGYIRIKRGTGNSYGVCGLYTSSFYPVKN
modifications: USP standard
For B6, the papain activity ([6]; USP papain) is listed as “at least 6,000 USP units per mg”.

B7: Marcor papain: Marcor Company (Hackensack, N.J.) papain (protein, UniProt P00784 134-345, looked up)
Papain: IPEYVDWRQKGAVTPVKNQGSCGSCWAFSAVVTIEGIIKIRTGNLNEYSEQELLDCDRRSYGCNGGYPWSALQLVAQYGIHYRNTYPYEGVQRYCRSREKGPYAAKTDGVRQVQPYNEGALLYSIANQPVSVVLEAAGKDFQLYRGGIFVGPCGNKVDHAVAAVGYGPNYILIKNSWGTGWGENGYIRIKRGTGNSYGVCGLYTSSFYPVKN
modifications: commercial Marcor preparation
In the case of B7, the papain activity ([6]; Marcor papain, footnote of EXAMPLE I) is given as 30,000 USP Units/m activity and the papain activity ([6]; Marcor papain) is given as 30,000 USP units/mg.
